Data as given in patent publication US20250262323, “PCSK9 ENDONUCLEASE VARIANTS, COMPOSITIONS, AND METHODS OF USE” (Novo Nordisk A/S, published 2025).

Assays:
[1] = target: T1, PCSK9.H7.C11 I-OnuI HE variant (synthetic construct (Ophiostoma …)); test: cell_activity; HEK 293T chromosomal mCherry reporter
T1 chain: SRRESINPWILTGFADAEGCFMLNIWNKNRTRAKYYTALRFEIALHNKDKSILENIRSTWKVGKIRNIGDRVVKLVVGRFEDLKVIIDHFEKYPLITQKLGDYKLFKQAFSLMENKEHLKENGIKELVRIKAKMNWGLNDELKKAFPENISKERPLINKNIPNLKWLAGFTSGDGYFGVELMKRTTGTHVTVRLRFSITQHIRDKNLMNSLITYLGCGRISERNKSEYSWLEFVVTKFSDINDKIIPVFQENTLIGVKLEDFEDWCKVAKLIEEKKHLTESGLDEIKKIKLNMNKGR
Method: The activity of reprogrammed I-OnuI HEs that target exon 4 of the PCSK9 gene was measured using a chromosomally integrated fluorescent reporter system (Certo et. al., 2011). Fully reprogrammed I-OnuI HEs that bind and cleave the PCSK9 target sequence were cloned into mammalian expression plasmids and then individually transfected into a HEK 293T […] cell line that contained the PCSK9 target sequence upstream of an out-of-frame gene encoding the fluorescent mCherry protein. Cleavage of the embedded target site by the HE and the accumulation of indels following DNA repair via the non-homologous end joining (NHEJ) pathway results in approximately one out of three repaired loci placing the fluorescent reporter gene back “in-frame”. The percentage of mCherry fluorescing HEK 293T cells is therefore used a readout of endonuclease activity at the chromosomally embedded target sequence. […] FIG. 3 (top panels).
A secondary I-OnuI variant library was next generated by performing random mutagenesis on the PCSK9.H7 HE variant (e.g., SEQ ID NO: 6). Display-based flow sorting was performed under more stringent cleavage conditions in an effort to isolate variants with improved catalytic efficiency. FIG. 3 (bottom panel). This process led to variant PCSK9.H7.C11 (SEQ ID NO: 7) with an approximately 2-fold higher rate of mCherry expressing cells.

[2] = target: T1, PCSK9.H7.C11 I-OnuI HE variant; test: flow; sub-nanomolar affinity; yeast surface display substrate titration; exact value only in figure; details: tags: yeast surface display

B1: PCSK9 exon 4 HE target site (dsDNA)
DNA 1: ATCTAAGAGATACACCTCCACC
DNA 2: GGTGGAGGTGTATCTCTTAGAT
In the case of B1, the activity [1] is reported as roughly 2 fold vs PCSK9.H7 and the Kd [2] is reported as less than 1 nM.
